Data: patent US20240241135A1 (SENBOLL BIOTECHNOLOGY, published 2024)

Key:
[1] = target: T1, recombinant human regenerating islet-derived protein 1α (REG1A) (human, UniProt P05451 23-166, limits assumed); assay: sandwich ELISA; capture 4H8F1; REG1A 1.23 ng/mL
T1 construct: also called recombinant human REG1A; recombinant REG1A
T1 sequence (looked up): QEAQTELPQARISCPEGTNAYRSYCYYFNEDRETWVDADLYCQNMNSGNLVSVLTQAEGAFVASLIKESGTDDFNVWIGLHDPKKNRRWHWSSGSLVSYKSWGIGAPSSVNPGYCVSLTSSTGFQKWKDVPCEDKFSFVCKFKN
Summary of the method: (§1)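 Values come from a sandwich ELISA and are reported as OD values. Each is the absorbance at 450 nm minus that at 620/630 nm, measured after 100 μL per well of recombinant human REG1A in basic diluent was incubated for 1 h at 37 °C on antibody-coated, blocked plates. Detection used a horseradish peroxidase-based antibody system with TMB substrate for 15 min at 37 °C, stopped with 0.2M sulfuric acid.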

[2] = target: T1, recombinant human regenerating …; assay: sandwich ELISA; capture 4H8F1; REG1A 3.70 ng/mL
Summary of the method: as §1

[3] = target: T1, recombinant human regenerating …; assay: sandwich ELISA; capture 25F3C4; REG1A 1.23 ng/mL
Summary of the method: as §1

[4] = target: T1, recombinant human regenerating …; assay: sandwich ELISA; capture 25F3C4; REG1A 3.70 ng/mL
Summary of the method: as §1

[5] = target: T1, recombinant human regenerating …; assay: sandwich ELISA; capture 4H8F1; REG1A 11.11 ng/mL
Summary of the method: as §1

[6] = target: T1, recombinant human regenerating …; assay: sandwich ELISA; capture 4H8F1; REG1A 33.33 ng/mL
Summary of the method: as §1

[7] = target: T1, recombinant human regenerating …; assay: sandwich ELISA; capture 21B11D2; REG1A 1.23 ng/mL
Summary of the method: as §1

[8] = target: T1, recombinant human regenerating …; assay: sandwich ELISA; capture 21B11D2; REG1A 3.70 ng/mL
Summary of the method: as §1

[9] = target: T1, recombinant human regenerating …; assay: sandwich ELISA; capture 25F3C4; REG1A 11.11 ng/mL
Summary of the method: as §1

[10] = target: T1, recombinant human regenerating …; assay: sandwich ELISA; capture 25F3C4; REG1A 33.33 ng/mL
Summary of the method: as §1

[11] = target: T1, recombinant human regenerating …; assay: sandwich ELISA; capture 4H8F1; REG1A 100.00 ng/mL
Summary of the method: as §1

[12] = target: T1, recombinant human regenerating …; assay: sandwich ELISA; capture 11D11B11; REG1A 1.23 ng/mL
Summary of the method: as §1

[13] = target: T1, recombinant human regenerating …; assay: sandwich ELISA; capture 11D11B11; REG1A 3.70 ng/mL
Summary of the method: as §1

[14] = target: T1, recombinant human regenerating …; assay: sandwich ELISA; capture 12F12A10; REG1A 1.23 ng/mL
Summary of the method: as §1

[15] = target: T1, recombinant human regenerating …; assay: sandwich ELISA; capture 12F12A10; REG1A 3.70 ng/mL
Summary of the method: as §1

[16] = target: T1, recombinant human regenerating …; assay: sandwich ELISA; capture 21B11D2; REG1A 11.11 ng/mL
Summary of the method: as §1

[17] = target: T1, recombinant human regenerating …; assay: sandwich ELISA; capture 21B11D2; REG1A 33.33 ng/mL
Summary of the method: as §1

[18] = target: T1, recombinant human regenerating …; assay: sandwich ELISA; capture 25F3C4; REG1A 100.00 ng/mL
Summary of the method: as §1

[19] = target: T1, recombinant human regenerating …; assay: sandwich ELISA; capture 11D11B11; REG1A 11.11 ng/mL
Summary of the method: as §1

[20] = target: T1, recombinant human regenerating …; assay: sandwich ELISA; capture 11D11B11; REG1A 33.33 ng/mL
Summary of the method: as §1

[21] = target: T1, recombinant human regenerating …; assay: sandwich ELISA; capture 12F12A10; REG1A 11.11 ng/mL
Summary of the method: as §1

[22] = target: T1, recombinant human regenerating …; assay: sandwich ELISA; capture 12F12A10; REG1A 33.33 ng/mL
Summary of the method: as §1

[23] = target: T1, recombinant human regenerating …; assay: sandwich ELISA; capture 21B11D2; REG1A 100.00 ng/mL
Summary of the method: as §1

[24] = target: T1, recombinant human regenerating …; assay: sandwich ELISA; capture 11D11B11; REG1A 100.00 ng/mL
Summary of the method: as §1

[25] = target: T1, recombinant human regenerating …; assay: sandwich ELISA; capture 12F12A10; REG1A 100.00 ng/mL
Summary of the method: as §1

[26] = target: T1, recombinant human regenerating …; assay: sandwich ELISA; capture 4H8F1; REG1A 0 ng/mL (blank)
Summary of the method: as §1

[27] = target: T1, recombinant human regenerating …; assay: sandwich ELISA; capture 25F3C4; REG1A 0 ng/mL (blank)
Summary of the method: as §1

[28] = target: T1, recombinant human regenerating …; assay: sandwich ELISA; capture 21B11D2; REG1A 0 ng/mL (blank)
Summary of the method: as §1

[29] = target: T1, recombinant human regenerating …; assay: sandwich ELISA; capture 11D11B11; REG1A 0 ng/mL (blank)
Summary of the method: as §1

[30] = target: T1, recombinant human regenerating …; assay: sandwich ELISA; capture 12F12A10; REG1A 0 ng/mL (blank)
Summary of the method: as §1

Binder	OD value [1]	OD value [2]	OD value [3]	OD value [4]	OD value [5]	OD value [6]	OD value [7]	OD value [8]	OD value [9]	OD value [10]	OD value [11]	OD value [12]	OD value [13]	OD value [14]	OD value [15]	OD value [16]	OD value [17]	OD value [18]	OD value [19]	OD value [20]	other results
antibody 12F12A10 (antibody, V domains shown, Mouse monoclonal from hybridoma, stated mouse IgG1/Kappa; also called 12F12A10-biotin; Antibody 2) VH: QVQLQQSATELARPGASVKMSCKASGYTFTSYMMHWVKQRPGQGLEWIGYINPSSGYTDYNQKFKDKTTLTADKSSSTAYMQLSSLTSEDSAVYYCARYRYPHYFDYWGQGTTLTVSS VL: QIVLTQSPAIMSASPGEKVTMTCSASSSVSYIHWYQQKSGTSPKRWIYDTSKLASGVPARFSGSGSGTSYSLTISSMEAEDAAIYYCQQWSSNPPTFGAGTKLELKR	2.99 OD	3.84 OD	3.76 OD	4.25 OD	4.22 OD	4.33 OD	3.9 OD	4.59 OD	4.37 OD	4.29 OD	4.33 OD	1.05 OD	2.81 OD	0.098 OD	0.088 OD	4.23 OD	4.59 OD	4.48 OD	3.9 OD	4.08 OD	OD value [21]: 0.088 OD; OD value [22]: 0.098 OD; OD value [23]: 4.65 OD; OD value [24]: 4.22 OD; OD value [25]: 0.096 OD; OD value [26]: 0.088 OD; OD value [27]: 0.093 OD; OD value [28]: 0.09 OD; OD value [29]: 0.083 OD; OD value [30]: 0.089 OD
antibody 11D11B11 (antibody, mouse IgG2a, kappa, V domains shown, Mouse monoclonal from hybridoma, stated mouse IgG1/Kappa; Used unlabelled as capture and biotin-labelled as detection antibody; also called 11D11B11-biotin) VH: DVKLVESGGGLVKPGGSLKLSCAASGFTFSSFSMSWFRQTPDKRLEWVATISSGGSSTYYPDSVKGRFTISRDNAKNTLYLQMTSLKSEDTAIFYCRGGYYGNYDPLDYWGQGTSVTVSA VL: DIVMIQSQKFMSTSVGDRVSITCTASHNVDSNVAWYQQKPGQSPQALIYSASYRYSGVPDRFTGSGSGTDFTLTINNVQSEDLAEYFCQQYNSYPLTFGGGTRLEIKR	2.46 OD	3.74 OD	0.071 OD	0.076 OD	4.1 OD	4.22 OD	0.089 OD	0.069 OD	0.079 OD	0.083 OD	4.24 OD	0.066 OD	0.066 OD	0.934 OD	1.54 OD	0.077 OD	0.077 OD	0.089 OD	0.072 OD	0.064 OD	OD value [21]: 2.69 OD; OD value [22]: 3.03 OD; OD value [23]: 0.075 OD; OD value [24]: 0.064 OD; OD value [25]: 3.15 OD; OD value [26]: 0.21 OD; OD value [27]: 0.074 OD; OD value [28]: 0.074 OD; OD value [29]: 0.079 OD; OD value [30]: 0.075 OD
antibody 4H8F1 (antibody, V domains shown, Mouse monoclonal from hybridoma, stated mouse IgG1/Kappa; also called 4H8F1-biotin; Antibody 1) VH: QVTLKESGPGILQPSQTLSLTCSFSGFSLSTSGMSVGWIRQPSGKGLEWLAHIWWNDDKFYNPALKSRLTISKDTSKNQIFLKIASVVTADSATYYCARIEEGWFAYWGQGTLVTVST VL: SIVMTQTPKFLLVSVGDRVTITCKASQTMSNDVAWYQQKPGQSPKLLIYYASNRYTGVPDRFTGSGYGTDFTFTISTVQAEDLAVYFCQQDYSSPLTFGAGTKLELKR	0.074 OD	0.079 OD	0.087 OD	0.082 OD	0.081 OD	0.081 OD	0.078 OD	0.077 OD	0.078 OD	0.085 OD	0.09 OD	1.37 OD	2.87 OD	1.3 OD	2.42 OD	0.073 OD	0.078 OD	0.086 OD	3.87 OD	4.48 OD	OD value [21]: 3.05 OD; OD value [22]: 3.27 OD; OD value [23]: 0.084 OD; OD value [24]: 4.24 OD; OD value [25]: 3.18 OD; OD value [26]: 0.074 OD; OD value [27]: 0.076 OD; OD value [28]: 0.075 OD; OD value [29]: 1.21 OD; OD value [30]: 0.068 OD
